B1: Internalin C (Listeria monocytogenes serotype 1/2a), P71451 (parent)
chain: MLKKNNWLQNAVIAMLVLIVGLCINMGSGTKVQAESIQRPTPINQVFPDPGLANAVKQNLGKQSVTDLVSQKELSGVQNFNGDNSNIQSLAGMQFFTNLKELHLSHNQISDLSPLKDLTKLEELSVNRNRLKNLNGIPSACLSRLFLDNNELRDTDSLIHLKNLEILSIRNNKLKSIVMLGFLSKLEVLDLHGNEITNTGGLTRLKKVNWIDLTGQKCVNEPVKYQPELYITNTVKDPDGRWISPYYISNGGSYVDGCVLWELPVYTDEVSYKFSEYINVGETEAIFDGTVTQPIKN
B2: Dynamin-binding protein (Homo sapiens), Q6XZF7-1 (parent)
chain: MEAGSVVRAIFDFCPSVSEELPLFVGDIIEVLAVVDEFWLLGKKEDVTGQFPSSFVEIVTIPSLKEGERLFVCICEFTSQELDNLPLHRGDLVILDGIPTAGWLQGRSCWGARGFFPSSCVRELCLSSQSRQWHSQSALFQIPEYSMGQARALMGLSAQLDEELDFREGDVITIIGVPEPGWFEGELEGRRGIFPEGFVELLGPLRTVDESVSSGNQDDCIVNGEVDTPVGEEEIGPDEDEEEPGTYGVALYRFQALEPNELDFEVGDKIRILATLEDGWLEGSLKGRTGIFPYRFVKLCPDTRVEETMALPQEGSLARIPETSLDCLENTLGVEEQRHETSDHEAEEPDCIISEAPTSPLGHLTSEYDTDRNSYQDEDTAGGPPRSPGVEWEMPLATDSPTSDPTEVVNGISSQPQVPFHPNLQKSQYYSTVGGSHPHSEQYPDLLPLEARTRDYASLPPKRMYSQLKTLQKPVLPLYRGSSVSASRVVKPRQSSPQLHNLASYTKKHHTSSVYSISERLEMKPGPQAQGLVMEAATHSQGDGSTDLDSKLTQQLIEFEKSLAGPGTEPDKILRHFSIMDFNSEKDIVRGSSKLITEQELPERRKALRPPPPRPCTPVSTSPHLLVDQNLKPAPPLVVRPSRPAPLPPSAQQRTNAVSPKLLSRHRPTCETLEKEGPGHMGRSLDQTSPCPLVLVRIEEMERDLDMYSRAQEELNLMLEEKQDESSRAETLEDLKFCESNIESLNMELQQLREMTLLSSQSSSLVAPSGSVSAENPEQRMLEKRAKVIEELLQTERDYIRDLEMCIERIMVPMQQAQVPNIDFEGLFGNMQMVIKVSKQLLAALEISDAVGPVFLGHRDELEGTYKIYCQNHDEAIALLEIYEKDEKIQKHLQDSLADLKSLYNEWGCTNYINLGSFLIKPVQRVMRYPLLLMELLNSTPESHPDKVPLTNAVLAVKEINVNINEYKRRKDLVLKYRKGDEDSLMEKISKLNIHSIIKKSNRVSSHLKHLTGFAPQIKDEVFEETEKNFRMQERLIKSFIRDLSLYLQHIRESACVKVVAAVSMWDVCMERGHRDLEQFERVHRYISDQLFTNFKERTERLVISPLNQLLSMFTGPHKLVQKRFDKLLDFYNCTERAEKLKDKKTLEELQSARNNYEALNAQLLDELPKFHQYAQGLFTNCVHGYAEAHCDFVHQALEQLKPLLSLLKVAGREGNLIAIFHEEHSRVLQQLQVFTFFPESLPATKKPFERKTIDRQSARKPLLGLPSYMLQSEELRASLLARYPPEKLFQAERNFNAAQDLDVSLLEGDLVGVIKKKDPMGSQNRWLIDNGVTKGFVYSSFLKPYNPRRSHSDASVGSHSSTESEHGSSSPRFPRQNSGSTLTFNPSSMAVSFTSGSCQKQPQDASPPPKECDQGTLSASLNPSNSESSPSRCPSDPDSTSQPRSGDSADVARDVKQPTATPRSYRNFRHPEIVGYSVPGRNGQSQDLVKGCARTAQAPEDRSTEPDGSEAEGNQVYFAVYTFKARNPNELSVSANQKLKILEFKDVTGNTEWWLAEVNGKKGYVPSNYIRKTEYT

Variants of: B1
Settings: with DNMBP

Row | Variant | effect of a mutation on the interaction
1 | F146A | decreasing interaction strength

Variants of: B2
Settings: with inlc_lismg inlC

Row | Variant | effect of a mutation on the interaction
2 | V1521R | decreasing interaction strength
3 | N1569R | decreasing interaction strength
